Experimental data reported in patent US10301596B2, “Method of repairing damaged chondrocytes via low-dose irradiation” (KOREA INSTITUTE OF RADIOLOGICAL & MEDICAL SCIENCES, priority 2013, dated 2019).

Tested on: chondrocytes
Experiment: Levels of differentiation- and inflammation-related proteins (type II collagen, Sox-9, I-κB, COX-2), Western blot in chondrocytes
Assay type: cell-based
Details: 10 ng/mL EGF, 10 nM PMA or 1 μM RA
Protocol: First, the chondrocytes derived from joints were cultured in a DMEM medium according to a known method (E. H. Hong, et al., J. Biol. Chem. 285:1283-1295, 2010). Then, the cultured chondrocytes were inoculated into culture dishes at a density of 5×10^4 cells/cm^2, which were irradiated with 0 cGy, 0.5 cGy, 1.0 cGy, 1.5 cGy, and 2.0 cGy LDR using a ^137Cs-ray source (KIRMS, Korea), and the levels of type II collagen or Sox-9 protein, which are cartilage-specific differentiation marker proteins, and I-κB or COX-2 protein, which are inflammation-related proteins, were determined via Western blot analysis, and the transcriptional activity of Sox-9 protein and NF-κB, which is affected by I-κB, were determined by reporter gene assay (FIGS. 1a and b). […]
Finally, chondrocytes were transfected with 3 μg of GFP-labeled S83A α-catenin, FLAG-labeled S33A β-catenin, or wild type γ-catenin, reacted with or without treatment with 5 μM or 10 μM BAY 11-7082 for 24 hours, and the levels of I-κB and COX-2 proteins were determined via Western blot analysis (FIG. 5g). […]

B1: epidermal growth factor (protein, UniProt P01133 23-1207, looked up)
Pro-epidermal growth factor: PQHWSCPEGTLAGNGNSTCVGPAPFLIFSHGNSIFRIDTEGTNYEQLVVDAGVSVIMDFHYNEKRIYWVDLERQLLQRVFLNGSRQERVCNIEKNVSGMAINWINEEVIWSNQQEGIITVTDMKGNNSHILLSALKYPANVAVDPVERFIFWSSEVAGSLYRADLDGVGVKALLETSEKITAVSLDVLDKRLFWIQYNREGSNSLICSCDYDGGSVHISKHPTQHNLFAMSLFGDRIFYSTWKMKTIWIANKHTGKDMVRINLHSSFVPLGELKVVHPLAQPKAEDDTWEPEQKLCKLRKGNCSSTVCGQDLQSHLCMCAEGYALSRDRKYCEDVNECAFWNHGCTLGCKNTPGSYYCTCPVGFVLLPDGKRCHQLVSCPRNVSECSHDCVLTSEGPLCFCPEGSVLERDGKTCSGCSSPDNGGCSQLCVPLSPVSWECDCFPGYDLQLDEKSCAASGPQPFLLFANSQDIRHMHFDGTDYGTLLSQQMGMVYALDHDPVENKIYFAHTALKWIERANMDGSQRERLIEEGVDVPEGLAVDWIGRRFYWTDRGKSLIGRSDLNGKRSKIITKENISQPRGIAVHPMAKRLFWTDTGINPRIESSSLQGLGRLVIASSDLIWPSGITIDFLTDKLYWCDAKQSVIEMANLDGSKRRRLTQNDVGHPFAVAVFEDYVWFSDWAMPSVMRVNKRTGKDRVRLQGSMLKPSSLVVVHPLAKPGADPCLYQNGGCEHICKKRLGTAWCSCREGFMKASDGKTCLALDGHQLLAGGEVDLKNQVTPLDILSKTRVSEDNITESQHMLVAEIMVSDQDDCAPVGCSMYARCISEGEDATCQCLKGFAGDGKLCSDIDECEMGVPVCPPASSKCINTEGGYVCRCSEGYQGDGIHCLDIDECQLGEHSCGENASCTNTEGGYTCMCAGRLSEPGLICPDSTPPPHLREDDHHYSVRNSDSECPLSHDGYCLHDGVCMYIEALDKYACNCVVGYIGERCQYRDLKWWELRHAGHGQQQKVIVVAVCVVVLVMLLLLSLWGAHYYRTQKLLSKNPKNPYEESSRDVRSRRPADTEDGMSSCPQPWFVVIKEHQDLKNGGQPVAGEDGQAADGSMQPTSWRQEPQLCGMGTEQGCWIPVSSDKGSCPQVMERSFHMPSYGTQTLEGGVEKPHSLLSANPLWQQRALDPPHQMELTQ
modifications: Pro-epidermal growth factor
notes: agent known to induce dedifferentiation of chondrocytes
pathological changes induced by soluble factor (type II collagen, Sox-9, COX-2 proteins): inhibition of expression of type II collagen and Sox-9 proteins and induction of COX-2 protein expression
